Experimental data: article PMC5709738 (The EMBO Journal, 2017)

How the values were obtained:
dynamic light scattering = format: physicochemical; conditions: DLS at 15 °C, ~21 µM (assuming COMA dimer) or similar concentrations
[1] = target: T1, fluorescently labelled full-length Ctf19-Mcm21 (Kluyveromyces lactis, UniProt Q6CRN7+Q6CVQ9); test: microscale thermophoresis (MST) of Okp1-derived peptides with full-length Ctf19-Mcm21; format: binding, K. lactis; conditions: NT.115 Monolith, 22–25 °C, ~27 nM NT-647-labelled Ctf19-Mcm21, ITC/MST buffer pH 7.5, thermophoresis + T jump, mean and 68% confidence interval, three independent experiments
T1 construct: we purified full-length K. lactis; NT-647-NHS red fluorescent dye on lysine side chains (chemical label); made in house; host or cells: Escherichia coli BL21 Rosetta 2(DE3)pLysS
T1 sequence (Q6CRN7 1-270): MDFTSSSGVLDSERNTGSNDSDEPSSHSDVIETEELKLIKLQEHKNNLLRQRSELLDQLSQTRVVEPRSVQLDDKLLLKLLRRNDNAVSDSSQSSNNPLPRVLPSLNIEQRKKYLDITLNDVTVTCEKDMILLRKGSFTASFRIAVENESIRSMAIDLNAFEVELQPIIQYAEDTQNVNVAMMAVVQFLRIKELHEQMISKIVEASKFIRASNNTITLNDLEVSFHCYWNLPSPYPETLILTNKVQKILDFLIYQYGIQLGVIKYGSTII
T1 sequence (Q6CVQ9 1-293): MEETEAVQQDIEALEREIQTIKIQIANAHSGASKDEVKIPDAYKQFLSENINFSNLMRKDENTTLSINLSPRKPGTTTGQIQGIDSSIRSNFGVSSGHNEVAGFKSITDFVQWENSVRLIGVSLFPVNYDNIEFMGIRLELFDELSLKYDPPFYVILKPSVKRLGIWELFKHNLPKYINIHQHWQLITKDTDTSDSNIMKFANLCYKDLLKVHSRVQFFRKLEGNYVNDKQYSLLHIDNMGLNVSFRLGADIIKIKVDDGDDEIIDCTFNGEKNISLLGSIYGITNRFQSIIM
Procedure: For our MST measurements (Wienken et al, 2010), we labelled purified Ctf19‐Mcm21 with a red fluorescent dye (NT‐647‐NHS), which covalently modifies lysine side chains, in company‐provided “labelling buffer” at 22–25°C, according to the manufacturer's instructions (Nanotemper Technologies), with a 1:4 molar ratio of Ctf19‐Mcm21 and dye. We transferred fluorescently labelled Ctf19‐Mcm21 and Okp1‐derived peptide, or variants of Okp1‐derived peptide (Fig 6G), to ITC/MST buffer. We prepared dilution series of peptides, and combined with a uniform volume of Ctf19‐Mcm21 in PCR tubes, before transferring to NT.115 MST premium‐coated glass capillaries (Nanotemper Technologies). For all our measurements, the total Ctf19‐Mcm21 concentration in the capillaries was ~27 nM. We measured MST data on an NT.115 Monolith BLUE/RED instrument (Nanotemper Technologies) at 22–25°C. Samples were heated with an infrared laser (λ: 1,474 nm ± 15 nm) set to 20% MST power (30 s on; 5 s off), and fluorophores excited with a laser (excitation λ: 625 nm; emission λ: 680 nm) set to 60% LED power. For all our MST measurements, fluorescence intensity counts were 350–500. We derived our binding data from the “thermophoresis + T jump” fluorescence signal. For each unique peptide sample, we measured data from three separately prepared dilution series. […]

[2] = target: T2, full-length Ctf19-Mcm21 (K. lactis) (Kluyveromyces lactis, UniProt Q6CRN7 1-270; Q6CVQ9 1-293); test: ITC
T2 chain 1: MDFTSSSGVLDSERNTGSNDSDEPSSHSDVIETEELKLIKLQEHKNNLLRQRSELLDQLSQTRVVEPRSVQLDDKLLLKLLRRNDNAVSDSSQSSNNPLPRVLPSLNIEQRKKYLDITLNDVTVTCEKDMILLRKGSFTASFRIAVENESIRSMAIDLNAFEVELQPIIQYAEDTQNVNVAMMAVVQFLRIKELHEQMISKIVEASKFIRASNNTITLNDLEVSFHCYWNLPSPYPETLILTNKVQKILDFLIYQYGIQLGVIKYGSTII
T2 chain 2: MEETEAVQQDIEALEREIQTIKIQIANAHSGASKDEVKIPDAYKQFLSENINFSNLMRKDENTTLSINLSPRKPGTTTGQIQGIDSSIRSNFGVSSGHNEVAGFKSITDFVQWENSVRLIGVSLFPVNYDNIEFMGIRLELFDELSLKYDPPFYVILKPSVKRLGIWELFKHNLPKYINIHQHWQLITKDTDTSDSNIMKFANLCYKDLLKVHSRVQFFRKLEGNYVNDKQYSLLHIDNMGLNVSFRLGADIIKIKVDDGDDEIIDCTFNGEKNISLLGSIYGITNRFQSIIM

[3] = target: T3, full-length Ctf19-Mcm21 (K. lactis) (Kluyveromyces lactis, UniProt Q6CRN7 1-270; Q6CVQ9 1-293); test: MST; Ctf19-Mcm21 labelled with NT-647-NHS on lysines, ~27 nM; dilution series of peptide; 22-25°C; ITC/MST buffer; three dilution series; conditions: both partners purified
T3 construct: Ctf19 of Kluyveromyces lactis; Mcm21 of Kluyveromyces lactis; for microscale thermophoresis it was labelled on lysine side chains with the red dye NT-647-NHS; also stands for the Ctf19-Mcm21 subassembly of COMA in nanoflow mass spectra; source: E. coli BL21 Rosetta 2(DE3)pLysS, co-expressed, purified
T3 sequence (looked up) 1: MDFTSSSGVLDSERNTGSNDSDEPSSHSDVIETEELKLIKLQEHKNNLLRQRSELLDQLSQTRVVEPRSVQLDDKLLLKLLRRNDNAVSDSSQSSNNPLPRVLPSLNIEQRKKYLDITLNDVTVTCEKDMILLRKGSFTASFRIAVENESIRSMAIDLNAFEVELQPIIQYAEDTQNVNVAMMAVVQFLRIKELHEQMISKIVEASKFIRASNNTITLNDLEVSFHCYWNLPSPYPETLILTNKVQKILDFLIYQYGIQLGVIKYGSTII
T3 sequence (looked up) 2: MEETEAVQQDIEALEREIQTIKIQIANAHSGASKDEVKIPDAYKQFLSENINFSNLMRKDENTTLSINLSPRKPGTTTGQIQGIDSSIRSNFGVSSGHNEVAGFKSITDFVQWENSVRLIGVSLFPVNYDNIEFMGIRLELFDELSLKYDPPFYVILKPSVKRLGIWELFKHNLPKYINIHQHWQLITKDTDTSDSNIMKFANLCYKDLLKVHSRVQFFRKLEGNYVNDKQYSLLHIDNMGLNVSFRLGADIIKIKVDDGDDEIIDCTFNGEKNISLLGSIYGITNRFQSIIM

[4] = target: T3, full-length Ctf19-Mcm21 (K. lactis); test: ITC; peptide at 120 uM injected into 13 uM Ctf19-Mcm21 in the cell, 25°C, ITC/MST buffer; single set of sites fit; three independent measurements; conditions: both partners purified
[5] = target: T4, Nkp1-Nkp2 heterodimer (K. lactis) (Kluyveromyces lactis, UniProt Q6CPR4 1-210; Q6CSR8 1-151); test: SEC; Superdex 200 HiLoad 10/600 prep grade column (Appendix Fig S7B); conditions: both partners purified
T4 construct: Nkp1 of Kluyveromyces lactis; Nkp2 of Kluyveromyces lactis; also called NN; source: E. coli BL21 Rosetta 2(DE3)pLysS, purified
T4 sequence (looked up) 1: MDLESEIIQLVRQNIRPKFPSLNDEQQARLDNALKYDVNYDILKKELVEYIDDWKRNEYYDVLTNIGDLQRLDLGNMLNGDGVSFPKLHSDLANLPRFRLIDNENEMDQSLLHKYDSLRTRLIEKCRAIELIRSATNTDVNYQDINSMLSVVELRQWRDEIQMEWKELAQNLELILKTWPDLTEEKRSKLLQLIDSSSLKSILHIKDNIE
T4 sequence (looked up) 2: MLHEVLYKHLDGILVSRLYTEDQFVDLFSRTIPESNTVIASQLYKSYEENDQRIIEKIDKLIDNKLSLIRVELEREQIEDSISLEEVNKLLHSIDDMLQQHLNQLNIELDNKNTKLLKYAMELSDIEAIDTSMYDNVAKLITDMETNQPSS

With “COMA-Nkp1-Nkp2: reconstituted COMA bound with Nkp1-Nkp2” the “hydrodynamic radius (Rh)” value (dynamic light scattering) was 13.7 nm.

With “N330A-K332P: Okp1 peptide variant differing in two residue positions (SNEIYQQDKIDFALPLKTDF)” the “dissociation constant (Kd)” value [1] was “no detectable binding”.

B1: Okp1-derived synthetic peptide with the Ctf19-Mcm21 binding motif (Okp1 residues 318-337) (peptide, UniProt Q6CJY0 318-337, looked up)
peptide: SNEIYQQDKIDFNLKLKTDF
notes: also called Okp1-derived peptide; source: synthetic peptide (Protein Chemistry core facility, IMP, Vienna)
Work on B1 yielded a Kd [2] of 43 nM, a Kd [3] of ~80 nM and a Kd [4] of ~40 nM.

B2: Okp1_295-383 (K. lactis) (domain or fragment, Kluyveromyces lactis, UniProt Q6CJY0 295-383, looked up)
chain: KTMHPSLSVALSNTFGLIKDDKMSNEIYQQDKIDFNLKLKTDFSKPLISEKEENSLNGLTNAMDNNRELVNEIFGKISALLQPKKNSNE
notes: source: E. coli BL21 Rosetta 2(DE3)pLysS, co-expressed with Ctf19 and Mcm21 versions, purified
B2: binds [5].
